Data on two molecules can be found in US20180155430A1.

Assay [1] has as its target human PD-1 (Programmed Death-1) (human) (UniProt Q15116). Briefly: cell-based or functional assay.
The target of assay [2] is human PD-L1 (PD-ligand 1) (human) (UniProt Q9NZQ7). Briefly: cell-based or functional assay.
Sequence of UniProt Q9NZQ7 (Q9NZQ7 19-290 limits assumed): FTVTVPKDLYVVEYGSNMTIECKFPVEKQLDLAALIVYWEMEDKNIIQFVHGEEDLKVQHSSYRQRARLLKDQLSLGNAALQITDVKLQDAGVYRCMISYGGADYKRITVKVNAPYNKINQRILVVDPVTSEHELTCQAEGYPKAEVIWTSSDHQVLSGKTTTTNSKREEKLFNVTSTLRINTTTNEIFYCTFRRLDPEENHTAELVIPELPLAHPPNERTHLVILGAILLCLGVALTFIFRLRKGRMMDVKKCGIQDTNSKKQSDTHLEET

Sequence of UniProt Q15116 (Q15116 other isoform, or with tags, fused parts or gaps limits assumed): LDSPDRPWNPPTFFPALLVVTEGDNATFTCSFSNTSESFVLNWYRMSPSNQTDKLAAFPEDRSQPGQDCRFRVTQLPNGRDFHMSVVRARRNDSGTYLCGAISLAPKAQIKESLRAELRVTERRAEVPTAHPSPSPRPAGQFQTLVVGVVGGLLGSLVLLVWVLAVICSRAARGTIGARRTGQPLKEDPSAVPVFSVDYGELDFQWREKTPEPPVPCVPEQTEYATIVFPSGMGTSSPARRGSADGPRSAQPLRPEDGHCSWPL

In turn, “anti-human PD-1 monoclonal antibody EH12” yielded an expansion of HCV-specific CFSE-low tetramer+ CD8+ T cells, 6 days with cognate peptide and IL-2 in assay [1] of 4 fold.

B1: anti-human PD-L1 monoclonal antibody 29E.2A3 (antibody, from another filing, mouse IgG2b, V domains shown)
VH: EVQLQQSGPELVKPGASVKMSCKASGYTFTSYVMHWVKQKPGQGLEWIGYVNPFNDGTKYNEMFKGKATLTSDKSSSTAYMELSSLTSEDSAVYYCARQAWGYPWGQGTLVTVSA
VL: DIVLTQSPASLAVSLGQRATISCRATESVEYYGTSLVQWYQQKPGQPPKLLIYAASSVDSGVPARFSGSGSGTDFSLTIHPVEEDDIAMYFCQQSRRVPYTFGGGTKLEIK
Consider B1, for which, in assay [2], the expansion of HCV-specific CFSE-low tetramer+ CD8+ T cells, 6 days with cognate peptide and IL-2 turned out to be 4 fold; the fold increase in B*4201 TL9 tetramer+ CD8+ T cells, 6-day CFSE proliferation assay of human PBMC with TL9 peptide plus antibody (peptide alone: 4.8-fold) was determined as 10.3 fold; the fold increase in frequency of EBV or CMV-specific CD8 T cells, 6-day CFSE assay, peptide plus antibody against peptide alone was less than 3.5 fold; the percentage of B*4201 TL9-specific CD8+ T cells after 6-day stimulation with peptide worked out at 12.4%.
